Laboratory results as given in US20260365734 (published 2026).
Residue numbers refer to the chain shown, from its start. Blank lines part the entries; values can stand above or below the binder they belong to.

Legend:
[1] = target: T1, human PD-L1 (cell surface) (human, UniProt Q9NZQ7); experiment: FACS
human PD-L1 ECD = human PD-L1 ECD (human, UniProt Q9NZQ7); experiment: BLI
[2] = target: mouse PD-L1 (cell surface) (mouse, UniProt Q9EP73); experiment: FACS, Hepa1-6 cells
[3] = target: T1, human PD-L1 (cell surface); experiment: FACS; remark: listed apart in the source
[4] = target: T1, human PD-L1 (cell surface); experiment: FACS, T24 cells
[5] = target: T1, human PD-L1 (cell surface); experiment: FACS, T24 cells; remark: listed apart in the source
[6] = target: T1, human PD-L1 (cell surface); experiment: FACS; remark: listed apart in the source

T1 sequence (Q9NZQ7 19-238): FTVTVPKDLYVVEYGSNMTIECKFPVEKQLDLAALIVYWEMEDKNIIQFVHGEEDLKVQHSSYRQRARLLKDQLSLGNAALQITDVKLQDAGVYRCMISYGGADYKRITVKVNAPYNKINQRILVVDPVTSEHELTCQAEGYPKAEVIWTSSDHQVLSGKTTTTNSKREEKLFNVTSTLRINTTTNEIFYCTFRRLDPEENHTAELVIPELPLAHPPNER
human PD-L1 ECD, sequence (Q9NZQ7 19-238): as above
mouse PD-L1 (cell surface), sequence (Q9EP73 19-238): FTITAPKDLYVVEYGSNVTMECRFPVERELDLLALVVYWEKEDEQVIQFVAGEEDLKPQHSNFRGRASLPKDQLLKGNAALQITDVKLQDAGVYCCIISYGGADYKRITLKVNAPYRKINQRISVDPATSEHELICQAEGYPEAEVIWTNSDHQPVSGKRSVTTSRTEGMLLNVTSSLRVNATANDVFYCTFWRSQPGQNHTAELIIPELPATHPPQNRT

B1: R3-3H1 (antibody, V domains shown)
VH: QLQLVESGGGVVQPGGSLRLSCAASGIDFSDTHMGWYRQAPGKQRELVAIITSGGSTDYVDSVKGRFTISRDNAKNTVYLQMNSLKFEDTAVYYCNARRSTIYWGQGTQVTVSS
- EC50 [1]: 0.815 nM
- Kd (human PD-L1 ECD): 1.2 nM

B4: Avastin (antibody, V domains shown)
VH: EVQLVESGGGLVQPGGSLRLSCAASGYTFTNYGMNWVRQAPGKGLEWVGWINTYTGEPTYAADFKRRFTFSLDTSKSTAYLQMNSLRAEDTAVYYCAKYPHYYGSSHWYFDVWGQGTLVTVSS
VL: DIQMTQSPSSLSASVGDRVTITCSASQDISNYLNWYQQKPGKAPKVLIYFTSSLHSGVPSRFSGSGSGTDFTLTISSLQPEDFATYYCQQYSTVPWTFGQGTKVEIK
- binding result [5]: no binding

B5: R2-5C12 (antibody, V domains shown)
VH: QVQLVESGGGLVQAGGSLRLSCAASGFSASDVVMAWYRQAPGKQREFVANIAARGSTDYANSVKGRFTISRDNAKNTVYLQMNSLKSDDTAVYYCNALVWNGSSYNNWGQGTQVTVSS
- EC50 [4]: 0.078 nM
- EC50 [1]: 0.24 nM
- Kd (human PD-L1 ECD): 5.01 nM
- EC50 [6]: 0.22 nM

B6: R2-1F4 (antibody, V domains shown)
VH: B5 VH with R54S, G55S, S56T, D58R, N61D, N73D, Y79S, D88E
- EC50 [4]: 0.059 nM
- EC50 [1]: 0.22 nM
- Kd (human PD-L1 ECD): 2.04 nM

Further lines, results first:

- binding result [2]: no binding
- EC50 [3]: 0.69 nM
B2: 5F8-hv8 (antibody, V domains shown)
VH: EVQLVESGGGLVQPGGSLRLSCAASGFDFSDTHMSWVRQAPGKERELVAIITSGGSTDYVDSVKGRFTISRDNSKNTLYLQMNSLRAEDTAVYYCNARRTTIYWGQGTQVTVSS

- EC50 [4]: 0.503 nM
- EC50 [1]: 0.53 nM
- Kd (human PD-L1 ECD): 0.054 nM
B3: R3-5F8 (antibody, V domains shown)
VH: B2 VH with A23V, S35G, V37Y, S74A, L78V, R86K, A87F
